Measured values reported in article PMC4770229, “Nuclear factor 90 uses an ADAR2-like binding mode to recognize specific bases in dsRNA”.

What was measured:
[1] = molecular target: T1, NF90dsRBDs (mouse, UniProt Q9Z1X4 380-592); test: fluorescence anisotropy; EMSA: 20 mM HEPES pH 7.5, 150 mM K acetate, on ice, 1 uM RNA (competition 0.5 uM complex); FA: same buffer, 23.5 C, 250 nM RNA; ITC: 20 mM HEPES pH 7.5, 50 mM NaCl, 25 C; settings: protein: recombinant; tags: GST removed by TEV; label: 5' Cy3 on strand 1; blunt
T1 sequence: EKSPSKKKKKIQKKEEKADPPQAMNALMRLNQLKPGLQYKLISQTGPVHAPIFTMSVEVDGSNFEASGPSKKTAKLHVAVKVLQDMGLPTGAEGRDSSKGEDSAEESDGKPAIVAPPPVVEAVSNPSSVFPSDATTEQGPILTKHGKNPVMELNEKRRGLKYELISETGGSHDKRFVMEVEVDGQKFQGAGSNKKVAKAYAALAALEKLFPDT

[2] = molecular target: NF90long;NF45-deltaN28 (mouse;mouse, UniProt Q9Z1X4;Q9CXY6 1-590;28-390, |); test: as above; settings: protein: recombinant;recombinant; tags: 6xHis removed by TEV;6xHis removed by TEV; copies: 1;1; label: 5' Cy3 on strand 1; blunt
[3] = molecular target: NF90long;NF45 (mouse;mouse?, UniProt Q9Z1X4;Q9CXY6 1-590;1-390, |); test: competition; competes DY781 21mer efficiently; EMSA: 20 mM HEPES pH 7.5, 150 mM K acetate, on ice, 1 uM RNA (competition 0.5 uM complex); FA: same buffer, 23.5 C, 250 nM RNA; ITC: 20 mM HEPES pH 7.5, 50 mM NaCl, 25 C; settings: protein: recombinant;recombinant; tags: 6xHis removed by TEV;6xHis removed by TEV; copies: 1;1; hairpin with mismatches
[4] = molecular target: T2, NF90dsRBDs-deltaNLS (mouse, UniProt Q9Z1X4 393-592); test: ITC; apparent Kd; unit as printed (mM), possibly uM misprint; 1:2 RNA:protein; EMSA: 20 mM HEPES pH 7.5, 150 mM K acetate, on ice, 1 uM RNA (competition 0.5 uM complex); FA: same buffer, 23.5 C, 250 nM RNA; ITC: 20 mM HEPES pH 7.5, 50 mM NaCl, 25 C; settings: protein: recombinant; tags: GST removed by TEV; chain copies: 2; blunt
T2 sequence: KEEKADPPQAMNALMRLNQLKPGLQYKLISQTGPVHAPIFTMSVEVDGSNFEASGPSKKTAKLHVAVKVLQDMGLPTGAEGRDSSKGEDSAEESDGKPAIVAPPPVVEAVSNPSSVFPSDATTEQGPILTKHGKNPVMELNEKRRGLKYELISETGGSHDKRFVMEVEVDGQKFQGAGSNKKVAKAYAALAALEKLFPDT

[5] = molecular target: NF90-deltaC380;NF45-deltaN28 (with NF90-deltaC380) (mouse?;mouse?, UniProt Q9Z1X4;Q9CXY6 1-380;28-390, |); test: EMSA; EMSA: 20 mM HEPES pH 7.5, 150 mM K acetate, on ice, 1 uM RNA (competition 0.5 uM complex); FA: same buffer, 23.5 C, 250 nM RNA; ITC: 20 mM HEPES pH 7.5, 50 mM NaCl, 25 C; settings: protein: recombinant;recombinant; tags: ;; copies: 1;1; label: 5' DY781 on strand 1; blunt

B1: 21mer dsRNA, Cy3 (dsRNA)
RNA 1: UCACUUUCAUAAUGCUGGAUA
RNA 2: UAUCCAGCAUUAUGAAAGUGA
Work on B1 yielded a Kd [1] of 0.433 ± 0.055 µM and a Kd [2] of 0.046 ± 0.016 µM.

B2: GluA2(R/G) hairpin RNA (structured_RNA)
RNA: CAUUAAGGUGGGUGGAAUAGUAUAACAAUAUGCUAAAUGUUGUUAUAGUAUCCCACCUACCCUGAUG
B2: binds [3].

B3: 18mer dsRNA, 2'F strand (dsRNA)
RNA 1: UCACUUUCAUAAUGCUGG
RNA 2: CCAGCAUUAUGAAAGUGA
modifications: 2'-F ribose uniformly on strand 1
Work on B3 yielded a Kd [4] of about 2400 µM.

B4: 18mer dsRNA, unmodified (dsRNA)
RNA 1: UCACUUUCAUAAUGCUGG
RNA 2: CCAGCAUUAUGAAAGUGA
Binder B4 has a Kd [4] of about 2400 µM.

B5: 21mer dsRNA, DY781 (dsRNA)
RNA 1: UCACUUUCAUAAUGCUGGAUA
RNA 2: UAUCCAGCAUUAUGAAAGUGA
B5: no binding [5].
